T1: human fibrinogen (human, UniProt P02671 20-629; P02675 31-491; P02679 27-437)
T1 construct: Bought (Chromogenix for ELISA and blots; Calbiochem, plasminogen free, for clumping assays); The plate adherence paragraphs say only 'fibrinogen'; also called solid phase fibrinogen; immobilized fibrinogen
T1 sequence 1: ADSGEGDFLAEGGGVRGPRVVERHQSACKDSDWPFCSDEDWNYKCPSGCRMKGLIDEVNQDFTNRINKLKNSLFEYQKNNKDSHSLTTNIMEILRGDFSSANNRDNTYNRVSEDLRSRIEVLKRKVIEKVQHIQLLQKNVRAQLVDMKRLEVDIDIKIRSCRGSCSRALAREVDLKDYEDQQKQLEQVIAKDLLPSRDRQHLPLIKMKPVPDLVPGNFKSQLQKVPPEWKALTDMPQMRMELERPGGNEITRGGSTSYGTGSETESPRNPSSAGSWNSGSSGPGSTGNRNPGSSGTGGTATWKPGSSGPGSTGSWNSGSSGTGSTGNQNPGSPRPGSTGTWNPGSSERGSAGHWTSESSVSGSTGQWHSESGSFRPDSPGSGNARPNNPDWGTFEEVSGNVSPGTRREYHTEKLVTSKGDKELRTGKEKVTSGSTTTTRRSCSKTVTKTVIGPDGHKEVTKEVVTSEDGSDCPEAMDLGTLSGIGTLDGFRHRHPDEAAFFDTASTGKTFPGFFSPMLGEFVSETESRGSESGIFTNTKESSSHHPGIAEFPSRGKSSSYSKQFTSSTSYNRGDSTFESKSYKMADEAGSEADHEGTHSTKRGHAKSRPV
T1 sequence 2: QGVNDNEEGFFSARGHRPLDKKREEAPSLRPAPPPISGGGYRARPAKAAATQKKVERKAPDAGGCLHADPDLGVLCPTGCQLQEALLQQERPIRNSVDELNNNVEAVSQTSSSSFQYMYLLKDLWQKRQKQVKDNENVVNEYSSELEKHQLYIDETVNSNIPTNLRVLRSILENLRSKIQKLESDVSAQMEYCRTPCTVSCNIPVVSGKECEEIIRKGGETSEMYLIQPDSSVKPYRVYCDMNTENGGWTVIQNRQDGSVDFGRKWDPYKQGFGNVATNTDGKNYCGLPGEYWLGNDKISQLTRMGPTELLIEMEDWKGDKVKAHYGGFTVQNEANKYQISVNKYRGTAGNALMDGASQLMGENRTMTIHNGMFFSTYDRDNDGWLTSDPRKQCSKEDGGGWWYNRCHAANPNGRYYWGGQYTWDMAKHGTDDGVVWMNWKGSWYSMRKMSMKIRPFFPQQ
T1 sequence 3: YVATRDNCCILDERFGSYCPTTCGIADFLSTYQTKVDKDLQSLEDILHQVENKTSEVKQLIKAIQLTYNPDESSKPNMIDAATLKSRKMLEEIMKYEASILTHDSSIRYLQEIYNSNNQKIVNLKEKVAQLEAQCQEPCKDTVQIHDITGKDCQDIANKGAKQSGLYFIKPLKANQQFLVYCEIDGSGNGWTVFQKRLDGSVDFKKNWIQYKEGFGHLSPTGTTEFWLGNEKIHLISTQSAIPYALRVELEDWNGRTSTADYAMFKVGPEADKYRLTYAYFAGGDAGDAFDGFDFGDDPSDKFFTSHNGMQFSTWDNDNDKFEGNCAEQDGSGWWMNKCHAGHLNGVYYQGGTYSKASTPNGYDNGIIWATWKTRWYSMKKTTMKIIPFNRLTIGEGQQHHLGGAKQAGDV

B1: γ chain of human fibrinogen (ligand)
chain: T1 sequence 3
notes: also called gamma-chain of fibrinogen; y chain of fibrinogen
B2: biotinylated recombinant region A from ClfA (other)
chain: SENSVTQSDSASNESKSNDSSSVSAAPKTDDTNVSDTKTSSNTNNGETSVAQNPAQQETTQSSSTNATTEETPVTGEATTTTTNQANTPATTQSSNTNAEELVNQTSNETTFNDTNTVSSVNSPQNSTNAENVSTTQDTSTEATPSNNESAPQSTDASNKDVVNQAVNTSAPRMRAFSLAAVAADAPAAGTDITNQLTNVTVGIDSGTTVYPHQAGYVKLNYGFSVPNSAVKGDTFKITVPKELNLNGVTSTAKVPPIMAGDQVLANGVIDSDGNVIYTFTDYVNTKDDVKATLTMPAYIDPENVKKTGNVTLATGIGSTTANKTVLVDYEKYGKFYNLSIKGTIDQIDKTNNTYRQTIYVNPSGDNVIAPVLTGNLKPNTDSNALIDQQNTSIKVYKVDNAADLSESYFVNPENFEDVTNSVNITFPNPNQYKVEFNTPDDQITTPYIVVVNGHIDPNSKGDLALRSTLYGYNSNIIWRSMSWDNEVAFNNGSGSGDGIDKPVVPEQPDEPGEIEPIPE
modifications: biotinylated (sites not given)
notes: domain: region A; also called ClfA region A; biotinylated ClfA

Legend:
human fibrinogen (human) = human fibrinogen (human) (UniProt P02671); assay: cell-based or functional assay
[1] = target: B2; assay: Western affinity blot of human fibrinogen (FIG. 22)
bovine serum albumin = target: T2, bovine serum albumin (bovine, UniProt P02769 25-607); assay: direct ELISA, biotinylated region A on BSA-coated plates
T2 construct: also called BSA
T2 sequence (P02769 25-607 limits assumed): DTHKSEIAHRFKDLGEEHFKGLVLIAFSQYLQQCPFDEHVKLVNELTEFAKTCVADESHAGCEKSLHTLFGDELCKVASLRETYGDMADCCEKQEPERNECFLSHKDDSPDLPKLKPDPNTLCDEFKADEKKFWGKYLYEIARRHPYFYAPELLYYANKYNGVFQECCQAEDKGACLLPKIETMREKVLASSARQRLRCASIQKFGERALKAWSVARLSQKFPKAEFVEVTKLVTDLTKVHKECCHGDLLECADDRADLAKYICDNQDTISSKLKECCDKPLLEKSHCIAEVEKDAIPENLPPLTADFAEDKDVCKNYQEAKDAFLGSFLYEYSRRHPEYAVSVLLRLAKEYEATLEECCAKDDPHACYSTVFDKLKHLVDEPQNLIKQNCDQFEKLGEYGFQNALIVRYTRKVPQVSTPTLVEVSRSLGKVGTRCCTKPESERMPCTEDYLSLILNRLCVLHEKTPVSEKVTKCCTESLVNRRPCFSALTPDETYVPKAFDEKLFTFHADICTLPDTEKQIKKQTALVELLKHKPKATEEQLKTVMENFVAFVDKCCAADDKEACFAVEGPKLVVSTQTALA

human fibrinogen = target: T1, human fibrinogen; assay: direct ELISA, biotinylated region A on fibrinogen-coated plates

“ClfA (native, on S. aureus Newman cells) (from UniProt Q53653 40-899)” gave a Clumping titer, µg/ml fibrinogen; clfB mutant, exponential phase (µg/ml fibrinogen) (human fibrinogen (human)) of 1.95, a Clumping titer, µg/ml fibrinogen; clfB mutant, stationary phase (µg/ml fibrinogen) (human fibrinogen (human)) of 0.98 and a Clumping titer, µg/ml fibrinogen; wild-type, stationary phase (µg/ml fibrinogen) (human fibrinogen (human)) of 0.98.

B1: binds [1].

For B2, the binding result (bovine serum albumin) was “no binding” and the “binding at the highest concentration, relative to ClfB region A” value (human fibrinogen) was ~50 % greater than ClfB.

Reference: patent US20040254354A1 (INHIBITEX, published 2004)
